From PMC3833899 (Brain research, 2013)

Biological target: Recombinant chick netrin-1 (chick, UniProt Q90922 26-606)
Assay: retention on a 30 kD cut-off size exclusion

binding result: binds
Binder: PRYQHTGAVYLLSASPQ [Integrin α3 peptide]
